From patent US20230220589A1

Legend:
[1] = biological target: M44-modified I NTAA target peptides (M44-I-P2-peptide); test: encoding assay; P2 F
[2] = biological target: M44-modified M NTAA target peptides; test: encoding assay; P2 F
[3] = biological target: M44-modified N NTAA target peptides; test: encoding assay; P2 F
[4] = biological target: M44-modified S NTAA target peptides; test: encoding assay; P2 F
[5] = biological target: M44-modified W NTAA target peptides; test: encoding assay; P2 F;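 also: fraction of recording tags encoded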
[6] = biological target: M44-modified Y NTAA target peptides (M44-Y-P2-peptide); test: encoding assay; P2 F;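 also: fraction of recording tags encoded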
[7] = biological target: M44-modified E NTAA target peptides; test: encoding assay; P2 M;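 also: fraction of recording tags encoded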
[8] = biological target: M44-modified F NTAA target peptides (M44-F-P2-peptide); test: encoding assay; P2 M;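 also: fraction of recording tags encoded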
[9] = biological target: M44-modified I NTAA target peptides (M44-I-P2-peptide); test: encoding assay; P2 M
[10] = biological target: M44-modified L NTAA target peptides (M44-L-P2-peptide); test: encoding assay; P2 M;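 also: fraction of recording tags encoded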
[11] = biological target: M44-modified M NTAA target peptides; test: encoding assay; P2 M
[12] = biological target: M44-modified N NTAA target peptides; test: encoding assay; P2 M
[13] = biological target: M44-modified P NTAA target peptides; test: encoding assay; P2 M;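 also: fraction of recording tags encoded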
[14] = biological target: M44-modified T NTAA target peptides; test: encoding assay; P2 M
[15] = biological target: M44-modified V NTAA target peptides; test: encoding assay; P2 M;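 also: fraction of recording tags encoded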
[16] = biological target: M44-modified Y NTAA target peptides (M44-Y-P2-peptide); test: encoding assay; P2 M;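 also: fraction of recording tags encoded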
[17] = biological target: M44-modified D NTAA target peptides; test: encoding assay; P2 N;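 also: fraction of recording tags encoded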
[18] = biological target: M44-modified E NTAA target peptides; test: encoding assay; P2 N;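 also: fraction of recording tags encoded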
[19] = biological target: M44-modified F NTAA target peptides (M44-F-P2-peptide); test: encoding assay; P2 N;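 also: fraction of recording tags encoded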
[20] = biological target: M44-modified H NTAA target peptides; test: encoding assay; P2 N
[21] = biological target: M44-modified I NTAA target peptides (M44-I-P2-peptide); test: encoding assay; P2 N
[22] = biological target: M44-modified L NTAA target peptides (M44-L-P2-peptide); test: encoding assay; P2 N;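 also: fraction of recording tags encoded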
[23] = biological target: M44-modified M NTAA target peptides; test: encoding assay; P2 N
[24] = biological target: M44-modified N NTAA target peptides; test: encoding assay; P2 N
[25] = biological target: M44-modified Q NTAA target peptides; test: encoding assay; P2 N
[26] = biological target: M44-modified S NTAA target peptides; test: encoding assay; P2 N
[27] = biological target: M44-modified V NTAA target peptides; test: encoding assay; P2 N;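 also: fraction of recording tags encoded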
[28] = biological target: M44-modified W NTAA target peptides; test: encoding assay; P2 N;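 also: fraction of recording tags encoded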
[29] = biological target: M44-modified Y NTAA target peptides (M44-Y-P2-peptide); test: encoding assay; P2 N;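 also: fraction of recording tags encoded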
[30] = biological target: M44-modified A NTAA target peptides (M44-A-P2-peptide); test: encoding assay; P2 Q
[31] = biological target: M44-modified D NTAA target peptides; test: encoding assay; P2 Q;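 also: fraction of recording tags encoded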
[32] = biological target: M44-modified E NTAA target peptides; test: encoding assay; P2 Q;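 also: fraction of recording tags encoded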
[33] = biological target: M44-modified F NTAA target peptides (M44-F-P2-peptide); test: encoding assay; P2 Q;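 also: fraction of recording tags encoded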
[34] = biological target: M44-modified H NTAA target peptides; test: encoding assay; P2 Q
[35] = biological target: M44-modified I NTAA target peptides (M44-I-P2-peptide); test: encoding assay; P2 Q
[36] = biological target: M44-modified L NTAA target peptides (M44-L-P2-peptide); test: encoding assay; P2 Q;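 also: fraction of recording tags encoded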
[37] = biological target: M44-modified M NTAA target peptides; test: encoding assay; P2 Q
[38] = biological target: M44-modified N NTAA target peptides; test: encoding assay; P2 Q
[39] = biological target: M44-modified Q NTAA target peptides; test: encoding assay; P2 Q
[40] = biological target: M44-modified S NTAA target peptides; test: encoding assay; P2 Q
[41] = biological target: M44-modified V NTAA target peptides; test: encoding assay; P2 Q;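 also: fraction of recording tags encoded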
[42] = biological target: M44-modified A NTAA target peptides (M44-A-P2-peptide); test: encoding assay; P2 T
[43] = biological target: M44-modified E NTAA target peptides; test: encoding assay; P2 T;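 also: fraction of recording tags encoded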
[44] = biological target: M44-modified F NTAA target peptides (M44-F-P2-peptide); test: encoding assay; P2 T;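 also: fraction of recording tags encoded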
[45] = biological target: M44-modified G NTAA target peptides (M44-G-P2-peptide); test: encoding assay; P2 T;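 also: fraction of recording tags encoded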
[46] = biological target: M44-modified I NTAA target peptides (M44-I-P2-peptide); test: encoding assay; P2 T
[47] = biological target: M44-modified L NTAA target peptides (M44-L-P2-peptide); test: encoding assay; P2 T;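 also: fraction of recording tags encoded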
[48] = biological target: M44-modified N NTAA target peptides; test: encoding assay; P2 T
[49] = biological target: M44-modified P NTAA target peptides; test: encoding assay; P2 T;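 also: fraction of recording tags encoded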
[50] = biological target: M44-modified Q NTAA target peptides; test: encoding assay; P2 T
[51] = biological target: M44-modified V NTAA target peptides; test: encoding assay; P2 T;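 also: fraction of recording tags encoded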

B1: engineered M44-L binder (SEQ ID NO: 21) (designed binder, not shown: small tags and cut ends; large carriers)
chain: QVSVQPNFQQDKFLGRWFYAGHASNSSWYREKVAALSMAKLVVAPATDGGLNATETFLRKNQCETITSLLQPAGSLGSYSSRSPHGGSTWSTSVVETDYDQYALLYLQGSKGPGEDFRGAILASRTQTPRAELKEKFTAFSKAQGFTEDTIVFLPQTDKCMTEQ
encoding yield [1]: 0.07
encoding yield [2]: 0.05
encoding yield [3]: 0.01
encoding yield [4]: 0.01
encoding yield [5]: 0.02
encoding yield [6]: 0.02
encoding yield [7]: 0.01
encoding yield [8]: 0.02
encoding yield [9]: 0.1
encoding yield [10]: 0.02
encoding yield [11]: 0
encoding yield [12]: 0.01
encoding yield [13]: 0.01
encoding yield [14]: 0.02
encoding yield [15]: 0.01
encoding yield [16]: 0.01
encoding yield [17]: 0.01
encoding yield [18]: 0.01
encoding yield [19]: 0
encoding yield [20]: 0.01
encoding yield [21]: 0.09
encoding yield [22]: 0.16
encoding yield [23]: 0.02
encoding yield [24]: 0.01
encoding yield [25]: 0.01
encoding yield [26]: 0.01
encoding yield [27]: 0.03
encoding yield [28]: 0.01
encoding yield [29]: 0.01
encoding yield [30]: 0.02
encoding yield [31]: 0.01
encoding yield [32]: 0.01
encoding yield [33]: 0.01
encoding yield [34]: 0.01
encoding yield [35]: 0
encoding yield [36]: 0.02
encoding yield [37]: 0
encoding yield [38]: 0.01
encoding yield [39]: 0.01
encoding yield [40]: 0.01
encoding yield [41]: 0.01
encoding yield [42]: 0.01
encoding yield [43]: 0.01
encoding yield [44]: 0.02
encoding yield [45]: 0.01
encoding yield [46]: 0.14
encoding yield [47]: 0.1
encoding yield [48]: 0.01
encoding yield [49]: 0.01
encoding yield [50]: 0.01
encoding yield [51]: 0.02

B2: engineered M44-L binder (SEQ ID NO: 31) (designed binder, not shown: small tags and cut ends; large carriers)
chain: QDSTQNLIPAPPLISVPLQPGFWTERFQGRWFLVGFAGNAVQKERQSRLTMQSLILELQEDNSYNITAINVRGQGCRYIISTLVPSSRPGQFTLGNIHSYPQIQSLDVQVADTDYDQFAMVFLQGTSENKQYFEVALAGRTKGLSDELKERFVSFAKSLGLKDNNIVFSVPTDQCIDN
encoding yield [1]: 0.08
encoding yield [2]: 0.1
encoding yield [3]: 0.05
encoding yield [4]: 0.04
encoding yield [5]: 0.09
encoding yield [6]: 0.12
encoding yield [7]: 0.03
encoding yield [8]: 0.07
encoding yield [9]: 0.17
encoding yield [10]: 0.19
encoding yield [11]: 0.02
encoding yield [12]: 0.02
encoding yield [13]: 0.02
encoding yield [14]: 0.05
encoding yield [15]: 0.03
encoding yield [16]: 0.03
encoding yield [17]: 0.01
encoding yield [18]: 0.02
encoding yield [19]: 0.01
encoding yield [20]: 0.03
encoding yield [21]: 0.03
encoding yield [22]: 0.14
encoding yield [23]: 0.02
encoding yield [24]: 0.03
encoding yield [25]: 0.02
encoding yield [26]: 0.03
encoding yield [27]: 0.04
encoding yield [28]: 0.01
encoding yield [29]: 0.05
encoding yield [30]: 0.04
encoding yield [31]: 0.01
encoding yield [32]: 0.02
encoding yield [33]: 0.04
encoding yield [34]: 0.04
encoding yield [35]: 0.03
encoding yield [36]: 0.12
encoding yield [37]: 0.01
encoding yield [38]: 0.02
encoding yield [39]: 0.01
encoding yield [40]: 0.04
encoding yield [41]: 0.03
encoding yield [42]: 0.03
encoding yield [43]: 0.01
encoding yield [44]: 0.05
encoding yield [45]: 0.04
encoding yield [46]: 0.07
encoding yield [47]: 0.15
encoding yield [48]: 0.02
encoding yield [49]: 0.02
encoding yield [50]: 0.02
encoding yield [51]: 0.04
